Test results from US20130022590A1, “Compositions Comprising Zinc Finger Domains and Uses Therefor” (priority 2009, published 2013).

Assays:
[1] = test system: 17-nt RNA oligonucleotide containing a single AGGUAA motif; assay: Gel shift assay of F12 with 17-nt oligonucleotide; format: binding
Method: Gel Shift assays e.g., FIGS. 1B, 32A, were carried out using standard protocols. In brief, oligonucleotides were 5′ end-labelled with T4 polynucleotide kinase and annealed. Binding reactions were set up in a volume of 30 μL and contained a constant concentration of ^32P-labeled probe (0.1 pmol) and increasing concentrations of F12, in a buffer consisting of 10 mM Mops (pH 7.2), 50 mM KCl, 5 mM MgCl2, 1 mM DTT, 0.03 mg/mL heparin, and 5% glycerol. Binding reactions were set up on ice and incubated at 4° C. for 30 min, after which time 15 μL of each sample was loaded onto a prerun 8% native polyacrylamide gel made up in 0.5× Tris-borate buffer, and electrophoresed (250V, 1 h, 4° C.). The oligonucleotide sequence used for gel shift experiments was GCAACCAGGUAAAGUCU (SEQ ID NO: 28); the site was mutated by changing the central GGU to CUG.
To determine whether the AGGUAA motif was sufficient for binding, the binding of the double finger construct F12 to a 17-nt RNA oligonucleotide containing a single AGGUAA motif was tested as described in Section 1.4 above with dsDNA, ssDNA, and dsRNA also tested as controls.

[2] = test system: ssRNA pool containing a randomized 25-nt sequence; assay: SELEX in vitro site selection; format: binding; conditions: up to 13 rounds of selection
Method: A ZRANB2-F12 SELEX protocol was developed, based on that used by Sakashita E. and Sakamoto H.1994 Acids Res 22:4082-4086. In brief, a library of ssRNA sequences was incubated with GST-F12 on glutathione Sepharose beads, and after washing protein—RNA complexes were eluted with glutathione and the selected RNA was reverse-transcribed and amplified by PCR. Sequencing of selected sequences was carried out after 7, 9, and 13 rounds of selection.
An oligonucleotide harbouring a 25-nucleoride (nt) random sequence surrounded by 2 primer binding sites with an estimated complexity of 1.2×10^12 (sampling complete sequence space for 20-nt sequences) was amplified by 10 rounds of PCR as previously described in Sakashita E., and Sakamoto H.1994 Nucleic Acids Res 22: 4082-4086, then purified by using a QIAquick gel extraction kit (e.g., QIAGEN) according to manufacturer's instructions. RNA was transcribed from 13 pmol of dsDNA template, then extracted with phenol/chloroform and ethanol-precipitated according to established methods in the art. The RNA pellet was resuspended in water […], and unincorporated nucleotides were removed by Sephadex G-25 Quick Spin columns (Roche). RNA was quantified by absorbance at 260 nm.
Binding reactions were carried out in SELEX buffer [10 mM Mops (pH 7.0), 50 mM KCl, 5 mM MgCl2, 5% glycerol, 1 mM DTT, 0.1% Triton, […], Complete protease inhibitor]. […]

[3] = test system: ssRNA containing two AGGUAA sites (AGGUAAAGGUAA, SEQ ID NO: 26); assay: Fluorescence anisotropy titration, double-site ssRNA; format: binding
Method: Fluorescence Anisotropy titrations e.g., as shown in FIGS. 1D-F, 8 and 35, were carried out using standard protocols. In brief, 5′-Fluorescein-labeled RNA oligonucleotides were quantified by A260, correcting for fluorescein absorbance by using A493. For single-site experiments, the sequence GCAACCAGGUAAAGUCU (SEQ ID NO: 28), or single base mutants thereof, was used. For double-site experiments, two AGGUAA sites were separated by different length sequences as indicated, and the total oligonucleotide lengths were kept constant by the symmetrical addition of adenines to each end. The anisotropy titrations were performed with a starting RNA concentration of 50 nM in a buffer comprising either 10 mM Tris (pH 8.0), 50 mM KCl, 5 mM MgCl2, 0.05 mg/mL heparin, and 1 mM DTT (for GST fusion constructs) or 10 mM Mops (pH 7.3), 50 mM NaCl, 0.05 mg/mL heparin, and 1 mM DTT (for ZRANB2-F12). RNasin (Promega) was also added to the protein solution to a concentration of 2 units/μL. Protein was titrated into this starting solution and anisotropy values measured on a Cary Eclipse fluorescence spectrophotometer fitted with manual polarizer and long-pass filters set to 475 and 515 nm for excitation and emission, respectively. Excitation and emission wavelengths were set at 495 and 520 nm, respectively (10-nm slits) and the temperature was maintained at 25° C. by using a block temperature controller. Association constants were determined by nonlinear least squares regression analysis using a 1:1 binding model.
The importance of the spacing between AGGUAA motifs was assessed by measuring binding of F12 to double sites that were separated by −1 to 8 nt (where −1 denotes the sequence AGGUAAGGUAA SEQ ID NO: 33; FIG. 1E, lanes 5-10).

[4] = test system: 5′ splice site from exon 3 of the Tra2β minigene (CUCUGAAUCUAGGUAAGAAAG); assay: Surface plasmon resonance competition binding; conditions: 750 nM F12, 1 molar equivalent competitor RNA; compared with exons 1 and 2
Method: Competition binding experiments were carried out by flowing a solution of F12 over a streptavidin chip coated with a biotinylated ssRNA oligonucleotide (containing the sequence AGGUAA) in the presence of an unlabeled competitor oligonucleotide.
Binding experiments were performed in triplicate at 25° C. on a BIACORE 3000 (Biacore). A 5′ biotin-labeled RNA oligonucleotide containing the 5′ splice site from exon 3 of the Tra2β minigene ([…]; SEQ ID NO: 29) was purified by size exclusion chromatography (Superdex 75), and unlabeled competitor oligonucleotides i.e., GCGAGCGGUACGUAGA from exon 1 (SEQ ID NO: 30), AGGAAUAAGUGAAGCUG from exon 2 (SEQ ID NO: 31), and […] from exon 3 (SEQ ID NO: 32) were used without further purification. Protein and RNA samples were dialysed into 10 mM sodium phosphate (pH 7.2), 50 mM NaCl, 1 mM DTT, and 0.005% NP20 and filtered. The biotinylated RNA was heated to 65° C. for 5 min, cooled on ice, and then immobilized onto a streptavidin-coated sensor chip to a total of approximately 160 relative units. Solutions of 750 nM F12 in the presence of 1 molar equivalent of each competitor RNA were injected in random order over the sensor chip (at a flow rate of 20 μL/min for 120 sec) and allowed to undergo a 120-sec dissociation time; a further 300-sec interval was allowed between injections. Data were analyzed by using BIA Evaluation software (Biacore). […]

B1: F12: F1 and F2 domains, residues 1-95 of human ZRANB2 (protein, UniProt O95218 1-95, looked up, fragment)
chain: MSTKNFRVSDGDWICPDKKCGNVNFARRTSCNRCGREKTTEAKMMKAGGTEIGKTLAEKSRGLFSANDWQCKTCSNVNWARRSECNMCNTPKYAK
modifications: F1-F2 zinc fingers GST fusion in some uses
notes: F1 and F2 domains, residues 1-95 of human ZRANB2
[1]
  effect of mutation of the central GGU to CUG: abrogated the interaction
[1]; dsDNA, ssDNA, dsRNA tested as controls
  nucleic acid type selectivity of the interaction: strongly selective for ssRNA
[2]
  consensus ssRNA sequence recognized: AGGUAA(N1-8)AGGUAA
[3]; FIG. 1E, lane 3
  effect on binding of scrambling both sites: effectively eliminated binding
[3]; FIG. 1E, lane 6
  affinity (association constant) for AGGUAAAGGUAA: 1.9e+07 M⁻¹
[3]; FIG. 1E, lanes 10 and 8
  affinity for double site with cytosine-rich spacer versus penta-adenine spacer: same affinity
[3]; double sites separated by −1 to 8 nt, adenines inserted
  affinity versus spacing between AGGUAA motifs: increased monotonically
[3]; sequence AGAAUGAGGUAA, FIG. 1E, lane 4
  effect on binding of randomizing one of the AGGUAA motifs: reduced the binding by a small, but reproducible, amount
[4]
  reduction in binding to the chip by competitor 5′ splice site oligonucleotide of exon 3: largest reduction in binding
